Experimental findings from publication PMC12319226 (Frontiers in Bioinformatics, 2025) are described below.

What all share (experiment): BLI
Settings in all cases: both partners purified

The target in one test is T1, fHbp m002416 (Neisseria meningitidis, fHbp v3.28/v1.1 …, point mutant).
T1 construct: also called fHbp 2,416; Round 2 best mutant
T1 chain: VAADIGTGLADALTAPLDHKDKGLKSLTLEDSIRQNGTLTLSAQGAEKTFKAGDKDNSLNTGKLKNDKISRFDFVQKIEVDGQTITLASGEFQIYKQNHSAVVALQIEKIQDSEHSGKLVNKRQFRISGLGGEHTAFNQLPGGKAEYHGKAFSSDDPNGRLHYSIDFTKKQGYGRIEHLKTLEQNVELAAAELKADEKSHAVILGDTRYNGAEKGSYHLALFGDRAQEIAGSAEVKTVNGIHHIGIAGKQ

The target in another test is T2, fHbp m000019 (Neisseria meningitidis, fHbp v1.1 …, point mutant).
T2 construct: also called Round 1 best mutant
T2 chain: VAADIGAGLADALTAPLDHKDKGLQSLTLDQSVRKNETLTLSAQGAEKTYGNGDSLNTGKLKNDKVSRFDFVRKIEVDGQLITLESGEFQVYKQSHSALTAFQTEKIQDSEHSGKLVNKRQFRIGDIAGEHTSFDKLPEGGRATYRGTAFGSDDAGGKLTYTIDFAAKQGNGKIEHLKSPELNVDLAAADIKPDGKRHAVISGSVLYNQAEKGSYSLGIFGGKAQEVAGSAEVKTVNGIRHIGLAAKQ

Test [1] deals with T3, Neisseria meningitidis factor H binding protein variant 1.1 (Neisseria meningitidis, UniProt Q9JXV4).
T3 construct: also called fHbp v1.1; fHbp variant 1.1

Test [2] concerns the target T4, Neisseria meningitidis factor H binding protein variant 3.28 (Neisseria meningitidis, fHbp variant …, strain).
T4 construct: also called fHbp v3.28; fHbp variant 3.28
T4 chain: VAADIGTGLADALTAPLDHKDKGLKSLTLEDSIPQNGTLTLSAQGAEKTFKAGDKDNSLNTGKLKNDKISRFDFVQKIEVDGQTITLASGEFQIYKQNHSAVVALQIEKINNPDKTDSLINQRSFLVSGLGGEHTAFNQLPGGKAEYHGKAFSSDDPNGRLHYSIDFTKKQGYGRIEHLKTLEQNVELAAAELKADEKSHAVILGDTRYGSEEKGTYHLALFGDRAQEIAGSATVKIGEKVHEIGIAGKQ

B1: human mAb 1E6 (antibody, V domains shown)
VH: EVQLVQSGAEVKKPGSSVKVSCKASGGTVIDYPITWVRQAPGQGLEWVGGFVPLFRTSNYGQKFQGRVTITADKSTSTASMELNSLTSEDTAIYYCARGDTAMGPFDYWGQGTLVTVSS
VL: SYVLTQPPSLSVAPGKTATLTCGGNNIAGKTVHWYQQRPGQAPVLVISYDSDRPSGIPERFSGSNSANTATLTISRVEAGDEADYYCQVWDRNSDHWVFGGGTKLTVL
notes: source: Expi293, transient transfection, purified (MabSelect SuRe, SEC)
On to B1, for which the equilibrium dissociation constant (Kd) (commonly the constant that tells how readily two partners part at equilibrium) was 0.32 nM with fHbp m002416, 0.8 nM with fHbp m000019, 3 to 10 nM in test [1] and 2 to 4 nM in test [2].

B2: human mAb 1A12 (antibody, V domains shown)
VH: EVQLVQSGAELKKPGESLKISCKASGYTFTNYWVVWVRQMPGEGLEWMGSIHPRDSDARYSLSFEGRVTFSVDKSTTTAYLQWSSLKVSDSAIYYCARLSQVSGWSPWVGPWGQGTLVTVSS
VL: DIVMTQSPSSLSASVGDRVTITCRASQSISVSLNWYQQKPGKAPKVLIYAASRLQSGIPSRFSGSGSGSHFTLTISSLQPEDFATYYCQETYSDLMYTFGQGTKVEIK
notes: as for B1
For B2, in test [2], the Kd lay within 7 to 20 nM.

B3: chimeric antibody h12C1 (antibody, V domains shown)
VH: QVQLQESGPELVKPGASVKISCKASGYSFSDYNMSWVKQSNGKSLEWIGIIDPKYGTINYNQKFKGKATLTVDQASSTAYMQLNSLTSEDSAVYYCVRDYYGSSYFDYWGQGTTLTVSS
VL: DIVLTQSPSSIYASLGERVTLTCKASQDIHNYLNWFQQKPGKSPKTLIYRANRLVDGVPSRFSGGGSGQDYSLTISSLEFEDIGIYYCLQYDEFPPTFGGGTRLEIK
notes: also called humanized 12C1 mAb; source: Expi293, transient transfection, purified (MabSelect SuRe, SEC)
Turning to B3, the Kd was 0.293 nM with fHbp m002416 and 0.1 to 0.8 nM in test [1].

B4: human mAb 4B3 (antibody, V domains shown)
VH: QVQLVQSGGGLVKPGGSLRLSCAASGFPFSSYYMSWIRQAPGKGLEWVSDINNSGNVKEYADFVKGRLTISRDNVKNSMYLHMNSLRVEDTAVYYCARNRGRFDVWGQGTLVTVSA
VL: EIVMTQSPGTLSLSPGETATLSCRASQMISSPFLAWYQQRRGQAPRLLIYGASTRATDTPDRFRGSGSGTDFILTISRLEPEDFAVYYCQYYDDSPFTFGQGTKLEIK
notes: as for B1
In the case of B4, the Kd with fHbp m002416 is 3.8 nM; with fHbp m000019, 2.4 nM; in test [1], 1 to 5 nM; in test [2], 5 to 6 nM.
